# Data taken from patent US9822156B2, “Amyloid beta expression constructs and uses therefor” (Whitehead Institute for Biomedical Research, priority 2014, dated 2017).
# B1: Arctic: yeast construct, four copies of Aβ42 E22G, SEQ ID NO:75 (protein)
# chain: MRFPSIFTAVLFAASSALAAPVNTTTEDETAQIPAEAVIGYLDLEGDFDVAVLPFSNSTNNGLLFINTTIASIAAKEEGVSLDKREAEADAEFRHDSGYEVHHQKLVFFAGDVGSNKGAIIGLMVGGVVIAKREAEAEADAEFRHDSGYEVHHQKLVFFAGDVGSNKGAIIGLMVGGVVIAKREADAEADAEFRHDSGYEVHHQKLVFFAGDVGSNKGAIIGLMVGGVVIAKREADAEADAEFRHDSGYEVHHQKLVFFAGDVGSNKGAIIGLMVGGVVIA
# B2: E22_deletion: yeast construct, four copies of Aβ42 with E22 deleted, SEQ ID NO:79 (protein)
# chain: MRFPSIFTAVLFAASSALAAPVNTTTEDETAQIPAEAVIGYLDLEGDFDVAVLPFSNSTNNGLLFINTTIASIAAKEEGVSLDKREAEADAEFRHDSGYEVHHQKLVFFADVGSNKGAIIGLMVGGVVIAKREAEAEADAEFRHDSGYEVHHQKLVFFADVGSNKGAIIGLMVGGVVIAKREADAEADAEFRHDSGYEVHHQKLVFFADVGSNKGAIIGLMVGGVVIAKREADAEADAEFRHDSGYEVHHQKLVFFADVGSNKGAIIGLMVGGVVIA
# B3: Dutch: yeast construct, four copies of Aβ42 E22Q, SEQ ID NO:71 (protein)
# chain: MRFPSIFTAVLFAASSALAAPVNTTTEDETAQIPAEAVIGYLDLEGDFDVAVLPFSNSTNNGLLFINTTIASIAAKEEGVSLDKREAEADAEFRHDSGYEVHHQKLVFFAQDVGSNKGAIIGLMVGGVVIAKREAEAEADAEFRHDSGYEVHHQKLVFFAQDVGSNKGAIIGLMVGGVVIAKREADAEADAEFRHDSGYEVHHQKLVFFAQDVGSNKGAIIGLMVGGVVIAKREADAEADAEFRHDSGYEVHHQKLVFFAQDVGSNKGAIIGLMVGGVVIA
# B4: Arctic_I31E: yeast construct, four copies of Aβ42 E22G/I31E, SEQ ID NO:77 (protein)
# chain: MRFPSIFTAVLFAASSALAAPVNTTTEDETAQIPAEAVIGYLDLEGDFDVAVLPFSNSTNNGLLFINTTIASIAAKEEGVSLDKREAEADAEFRHDSGYEVHHQKLVFFAGDVGSNKGAEIGLMVGGVVIAKREAEAEADAEFRHDSGYEVHHQKLVFFAGDVGSNKGAEIGLMVGGVVIAKREADAEADAEFRHDSGYEVHHQKLVFFAGDVGSNKGAEIGLMVGGVVIAKREADAEADAEFRHDSGYEVHHQKLVFFAGDVGSNKGAEIGLMVGGVVIA
# B5: Aβ42_Arctic (E22G): lentiviral construct, insulin signal peptide fused to Aβ42 E22G, SEQ ID NO:17 (protein)
# chain: MALWMRLLPLLALLALWGPDPAAADAEFRHDSGYEVHHQKLVFFAGDVGSNKGAIIGLMVGGVVIA
# B6: Aβ42_Arc/I31E: lentiviral construct, insulin signal peptide fused to Aβ42 E22G/I31E, SEQ ID NO:23 (protein)
# chain: MALWMRLLPLLALLALWGPDPAAADAEFRHDSGYEVHHQKLVFFAGDVGSNKGAEIGLMVGGVVIA
# Assays:
# 293T cells = experiment: TOXILIGHT cytotoxicity assay in stable doxycycline-inducible poly-Aβ 293T cell lines; format: cell-based; details: 72-96 hours following doxycycline induction
# Description: Similar to the poly-Aβ (Aβ40 or Aβ42_1X/4X/6X/8X) expression constructs in yeast (see Example 1), a poly-Aβ toxicity model was developed in mammalian cells. Stable cell lines with chromosomally-integrated tetracycline (doxycycline)-inducible […] transgenes (Aβ42-4X, Aβ42-6X, Aβ40-4X, Aβ40-6X and Aβ42-Arctic-4X) linked to an N-terminal insulin signal peptide were generated (FIGS. 13A-13B). These expression constructs were generated using the pLix402 lentiviral plasmid (FIG. 12). The poly-Aβ constructs were individually transfected into 293T cells along with the lentiviral packaging plasmid psPAX and the viral envelope-expressing plasmid mMD2.G using LIPOFECTAMINE® 2000 (Invitrogen) transfection reagent to generate lentivirus containing the poly-Aβ transgene. The virus was harvested from the supernatant of transfected 293T cells 2 and 3 days post-transfection and subsequently purified and concentrated using the LENTI-X™ Maxi Purification kit (Clontech) according to the manufacturer's instructions.
# To generate stable cells harboring the expression transgene for the poly-Aβ constructs, 293T cells were infected using POLYBRENE® infection reagent (Sigma Aldrich), which is used to introduce retroviral vectors into mammalian cells. Infected cells were then selected using puromycin (2-10 μg/ml). Infected cells harboring the transgene survive this selection pressure whereas the control cells without the transgene die in 2-3 days. Aliquots of the selected cells were frozen in liquid nitrogen or maintained and propagated for further applications.
# Expression of Aβ peptide from these stable cell lines was measured in the culture supernatant 72-96 hours following doxycycline induction (FIG. 13D). Toxicity was measured 72-96 hours following doxycycline induction using a TOXILIGHT™ cytotoxicity assay (Lonza) as described in Example 2.
# Yeast cells = experiment: Yeast growth spotting assay of Aβ expression constructs on glucose or galactose media; format: cell-based; details: galactose-induced expression from 2μ high-copy plasmid pAG425Gal
# Description: The Aβ sequence was codon optimized for expression in yeast. The Aβ expression construct consists of attB Gateway flanking regions at the 5′ and 3′ ends (nucleotides […] (SEQ ID NO:84) and […] (SEQ ID NO:85), respectively) for Gateway cloning of MatαPrepro-Aβ42 sequence. The entire construct was synthesized into pUC57-Kan plasmid and cloned into the Gateway entry vector pDONR221. These constructs were then transferred into the pAG425Galexpression vector by Gateway LR cloning (Alberti et al., “A suite of Gateway cloning vectors for high throughput genetic analysis in Saccharomyces cerevisiae,” Yeast 24:913 (2007)). The GAL1 promoter enables expression of Aβ fusion transgenes under galactose-inducible conditions. The vector has an ampicillin resistant gene for amplification of the vector in E. coli and leucine auxotrophic marker (LEU2) for selection of transformed yeast cells on media lacking leucine (FIG. 2).
# Yeast cells transformed with either an expression vector containing galactose-inducible green fluorescent protein (GFP) or a galactose-inducible expression plasmid encoding a yeast mating factor alpha signal sequence/human amyloid beta 1-42 (Aβ42) or 1-40 (Aβ40) or scrambled Aβ42 fusion polypeptide were grown on glucose or galactose containing synthetic media and growth was assessed. Transformed cells were selected in medium lacking leucine. Individual transformants were grown overnight in complete synthetic medium (CSM) lacking leucine with 2% raffinose as the carbon source. Cell concentrations (OD600) were adjusted in a 96-well plate to OD 0.5 or 1. Cells were then 5-fold serially diluted and spotted on SD media containing glucose (uninduced) and galactose (induced). Plates were incubated at 30° C. for 2 days (glucose) or 3 to 4 days (galactose).
# [1] = test system: Rat embryonic cortical neurons; details: lentiviral infection, synapsin promoter, secretory pathway expression
# Description: Rat embryonic cortical neurons were used for expressing Aβ. For generating lentiviral constructs, an expression vector was used with the human synapsin 1 promoter upstream of the inserted insulin signal peptide-Aβ fusion polypeptide transgene (FIG. 9). The encoded fusion polypeptide is processed in the secretory pathway of the neuron, releasing Aβ in the extracellular milieu.
# The pLV-Aβ constructs along with the psPAX2 packaging vector and pMD2.G envelope vector were transfected in 293T cells using LIPOFECTAMINE® 2000 (Invitrogen) transfection reagent following the manufacture's instruction to generate lentivirus containing the Aβ transgene. The virus was purified using LENTI-X™ Maxi Purification Kit (Clontech) from the supernatant of the transfected 293T cells according to the protocol provided by the manufacturer. Viral titer were determined by using Lentivirus-Associated p24 ELISA Kit (Cell BioLabs).
# Rat embryonic cortices were dissected out of embryonic (E18) rat brains, and neurons were enriched in adherent monolayer culture. These cortical neurons were infected with lentiviral preparation harboring an Aβ transgene or a control gene (RFP in the same vector backbone). Infected cultures were harvested to quantify the amount of Aβ in the supernatant and cell lysate by Aβ-specific ELISA 21 days after infection (FIG. 10A). Corresponding cytotoxicity of the infected neurons was measured by quantifying ATP levels using […]™ assay for cell viability (Lonza).
# Rat cortical neurons = experiment: Fluorescence microscopy of neuronal survival and morphology after lentiviral Aβ infection (GFP live imaging, Map2 staining); format: cell-based; details: for neuronal survival and morphology, GFP live neuron imaging: 21 days after initial infection, identical MOI; for neuronal survival and morphology, Map2 immunostaining: twenty-one days post-infection
# Method: Rat cortical neurons were infected with a doxycycline-inducible lentiviral GFP construct. Two days post-infection, the cells were infected again with neuron-specific (synapsin promoter) lentiviral Aβ constructs (i.e., Aβ40, Aβ42, and various mutations). The doubly-infected cells were treated with doxycycline 7 days post-infection to express GFP. After 21 days of the initial infection, live neurons were visualized using fluorescence microscopy to observe the effect of different Aβ variants on neuronal survival and morphology by visualizing neurons expressing GFP in presence of Aβ expressed from the transgenes.
# Similar observations were also made by immunohistochemical analysis of rat cortical neurons infected with neuron-specific (synapsin promoter) lentiviral Aβ constructs. Twenty-one days post-infection, the neurons were stained with a neuron-specific microtubule-associated protein 2 (Map2) primary antibody (rabbit polyclonal, Millipore) and ALEXA FLUOR® (red fluorophore conjugated) secondary antibody (goat anti-rabbit polyclonal, Life Technologies). Neuronal cells and morphology were visualized to observe the effect of different Aβ mutations using fluorescence microscopy.
molecule,measurement,setting,value
"AB40-6X: doxycycline-inducible construct, insulin signal peptide and six copies of Aβ40, SEQ ID NO:43","Aβ peptide-mediated cytotoxic effect (adenylate kinase release), rank order",293T cells,Aβ42-6X≧Aβ42-Arctic-4X≧Aβ42-4X≧AB40-6X≧Aβ40-4X
"Aβ40-4X: doxycycline-inducible construct, insulin signal peptide and four copies of Aβ40, SEQ ID NO:41","Aβ peptide-mediated cytotoxic effect (adenylate kinase release), rank order",293T cells,Aβ42-6X≧Aβ42-Arctic-4X≧Aβ42-4X≧AB40-6X≧Aβ40-4X
"Aβ42 (1X): yeast expression construct, mating factor alpha prepro sequence with one copy of Aβ42, SEQ ID NO:51",toxicity (inhibition of yeast cell growth) upon expression,Yeast cells,not toxic
"Aβ42-6X: doxycycline-inducible construct, insulin signal peptide and six copies of Aβ42, SEQ ID NO:39","Aβ peptide-mediated cytotoxic effect (adenylate kinase release), rank order",293T cells,Aβ42-6X≧Aβ42-Arctic-4X≧Aβ42-4X≧AB40-6X≧Aβ40-4X
"Aβ42_I31E: lentiviral construct, insulin signal peptide fused to Aβ42 I31E, SEQ ID NO:21",cytotoxicity (ATP levels),[1],less cytotoxic effects compared to either the wild-type human Aβ42 or the Arctic variation of human Aβ42
same,"neuronal survival and morphology, GFP live neuron imaging",Rat cortical neurons,reduced cytotoxicity and no significant morphological distortions of the neurons and neurites
same,"neuronal survival and morphology, Map2 immunostaining",Rat cortical neurons,reduced cytotoxicity and had no significant effects on the neuronal morphology
B1,toxicity (inhibition of yeast cell growth) upon expression,Yeast cells,profound toxicity
B2,toxicity (inhibition of yeast cell growth) upon expression,Yeast cells,profound toxicity
B3,toxicity (inhibition of yeast cell growth) upon expression,Yeast cells,profound toxicity
B4,toxicity (inhibition of yeast cell growth) upon expression,Yeast cells,significantly lower amount of toxicity
B5,cytotoxicity (ATP levels),[1],more toxic effect compared to the wild-type human Aβ42
same,"neuronal survival and morphology, GFP live neuron imaging",Rat cortical neurons,caused neuronal death and adversely affected neurite outgrowth and structures
same,"neuronal survival and morphology, Map2 immunostaining",Rat cortical neurons,"profound cytotoxicity, resulting in massive neuronal loss and distorted neurite structures and outgrowth"
B6,cytotoxicity (ATP levels),[1],less cytotoxic effects compared to either the wild-type human Aβ42 or the Arctic variation of human Aβ42
same,"neuronal survival and morphology, GFP live neuron imaging",Rat cortical neurons,reduced cytotoxicity and no significant morphological distortions of the neurons and neurites
same,"neuronal survival and morphology, Map2 immunostaining",Rat cortical neurons,reduced cytotoxicity and had no significant effects on the neuronal morphology
